Assay results reported in publication PMC4121237, “Engineering Neprilysin Activity and Specificity to Create a Novel Therapeutic for Alzheimer’s Disease” (PLoS ONE, 2014).
Values joined by “and” are separate entries in the source; they are usually repeats but may differ in a detail not shown here. Equal entries are not always repeated.

Assays:
Format in all cases: biochemical
ANP = assay: Steady-state kinetics of peptide cleavage, fluorescence polarisation; conditions: substrate ANP
Procedure: (§1) For detailed kinetic characterisation of peptide cleavage by NEP, a similar assay to that above was used with modifications based on a published method. Peptides were synthesised by Bachem using 9-fluorenylmethyloxycarbonyl solid-phase peptide synthesis and were labelled with a N-terminal 5(6)FAM via a ε-aminocaproic acid linker and a C-terminal biotin via a lysine linker (Table S1). Purified peptides were supplied as trifluoroacetate salts with a purity ≥95%. The assay was performed in a 96-well microtitre plate and contained 50 mM HEPES (pH 7.4), 100 mM NaCl, 0.05% (w/v) BSA (Buffer A), 1–200 µM peptide substrate and 1–500 nM NEP protein. Reactions were incubated at 37°C before being stopped at various time points between 2 and 360 min by transferring 5 µL aliquots to 245 µL Buffer A containing 2 mM 1,10-phenanethroline (Sigma) and 2 µM avidin (Invitrogen). For peptide substrates containing disulphide bonds, 1 mM tris(2-carboxyethyl)phosphine (Thermo Scientific) was added to the stop solution. The fluorescence polarisation of the resulting solution was measured on a Victor plate reader and the amount of substrate cleaved was determined with reference to substrate-only controls with and without avidin. Initial rates were obtained by linear regression of the linear regions of time courses. Enzyme velocity was plotted as a function of substrate concentration and the Michaelis-Menten equation was used to fit the data, giving the parameters kcat and KM.

Arg-vasopressin = assay: as above; conditions: substrate Arg-vasopressin
Procedure: as §1

Aβ1–40 = assay: as above; conditions: for increase in kcat/KM (catalytic efficiency) on Aβ1–40 over wild-type NEP: relative to wild-type NEP
Procedure: as §1

Bradykinin = assay: as above
Procedure: as §1

GLP-1 = assay: as above; conditions: substrate GLP-1
Procedure: as §1

GRP = assay: as above; conditions: substrate GRP
Procedure: as §1

Glucagon = assay: as above; conditions: substrate Glucagon
Procedure: as §1

Neurokinin A = assay: as above; conditions: substrate Neurokinin A
Procedure: as §1

Neurokinin B = assay: as above; conditions: substrate Neurokinin B
Procedure: as §1

Neurotensin = assay: as above
Procedure: as §1

Nociceptin = assay: as above; conditions: substrate Nociceptin
Procedure: as §1

Somatostatin 14 = assay: as above; conditions: substrate Somatostatin 14
Procedure: as §1

Substance P = assay: as above; conditions: substrate Substance P
Procedure: as §1

α-endorphin = assay: as above; conditions: substrate α-endorphin
Procedure: as §1

γ-endorphin = assay: as above; conditions: substrate γ-endorphin
Procedure: as §1

Endothelin-1 = assay: Steady-state kinetics of endothelin-1 cleavage, stopped assay with RP-HPLC
Procedure: Kinetic parameters for cleavage of endothelin-1 by NEP were determined using a stopped assay in which the amount of substrate cleaved was measured using reversed-phase HPLC (RP-HPLC). Endothelin-1 was incubated at 12.5–200 µM in the presence of wild type NEP or NEPv and reactions were stopped after 10 min at 37°C by the addition of an equal volume of 1∶1∶1 water:acetonitrile:TFA containing 2 mM tris(2-carboxyethyl)phosphine (Thermo Scientific). RP-HPLC spectra were recorded using an Agilent 1260 Infinity system. Injections of 20 µL were made for each sample and analytes were separated by elution on an Agilent Polaris C8-A stationary phase column (4.6×100 mm, 3 µm) at 1.5 mL min^−1 using a linear binary gradient of 10–90% acetonitrile in water with 0.1% (v/v) TFA over 15 minutes at 40°C. Signal intensity for intact endothelin-1 was monitored at 210 nm and relative peak area was determined by manual integration of the baseline. Kinetic parameters were derived from the activity data as described above.

Aβ1–42 = target: T1, Aβ1–42 (Homo sapiens, UniProt P05067); assay: Endpoint degradation assay with ELISA read-out; conditions: 1 hour at room temperature; Aβ42 ELISA
T1 construct: Aβ 1-42^a
Procedure: Supplementary file pone.0104001.s001.tif: Figure S1 Degradation of Aβ1–40 and Aβ1–42 by NEP wild-type and NEPv. Measurement of the degredation of Aβ1–40 (A) and Aβ1–42 (B) was performed by incubating peptide and either wild-type NEP (▪) or NEPv (Δ) for 1 hour at room temperature. The reaction was stopped by the addition of 1.10-phenanthroline to a final concentration of 10 µM. 50 µl (Aβ40 analysis) or 100 µl (Aβ42 analysis) of the reaction mix was transferred to an ELISA plate. Aβ40 and Aβ42 concentrations after degradation were determined using Invitrogen human Aβ40 ELISA kit (Invitrogen, California, US), and Innotest β-amyloid RUO (1–42) ELISA (Innogenetics, Gent, Belgium). […] (TIF) Click here for additional data file.

[1] = ratio of wild-type NEP kcat/KM to that of the mutant
[2] = substrate Aβ 1–40, 37°C, pH 7.4
[3] = substrate Bradykinin, 37°C, pH 7.4
[4] = substrate Neurotensin, 37°C, pH 7.4
[5] = substrate Endothelin-1 (unlabelled), RP-HPLC, 10 min at 37°C

T1 sequence (P05067 672-713): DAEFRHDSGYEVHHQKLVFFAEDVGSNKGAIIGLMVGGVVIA

B1: NEPv: lead variant at round 2, human NEP ectodomain with the two mutations G399V and G714K (protein, UniProt P08473 52-750, looked up, variant G399V G714K)
extracellular domain: YDDGICKSSDCIKSAARLIQNMDATTEPCTDFFKYACGGWLKRNVIPETSSRYGNFDILRDELEVVLKDVLQEPKTEDIVAVQKAKALYRSCINESAIDSRGGEPLLKLLPDIYGWPVATENWEQKYGASWTAEKAIAQLNSKYGKKVLINLFVGTDDKNSVNHVIHIDQPRLGLPSRDYYECTGIYKEACTAYVDFMISVARLIRQEERLPIDENQLALEMNKVMELEKEIANATAKPEDRNDPMLLYNKMTLAQIQNNFSLEINGKPFSWLNFTNEIMSTVNISITNEEDVVVYAPEYLTKLKPILTKYSARDLQNLMSWRFIMDLVSSLSRTYKESRNAFRKALYVTTSETATWRRCANYVNGNMENAVGRLYVEAAFAGESKHVVEDLIAQIREVFIQTLDDLTWMDAETKKRAEEKALAIKERIGYPDDIVSNDNKLNNEYLELNYKEDEYFENIIQNLKFSQSKQLKKLREKVDKDEWISGAAVVNAFYSSGRNQIVFPAGILQPPFFSAQQSNSLNYGGIGMVIGHEITHGFDDNGRNFNKDGDLVDWWTQQSASNFKEQSQCMVYQYGNFSWDLAGGQHLNGINTLGENIADNGGLGQAYRAYQNYIKKNGEEKLLPGLDLNHKQLFFLNFAQVWCGTYRPEYAVNSIKTDVHSPKNFRIIGTLQNSAEFSEAFHCRKNSYMNPEKKCRVW
modifications: extracellular domain
Question: How did the Km (ANP; 37°C, pH 7.4) turn out when B1 was run?
Answer: The Km was 33 ± 6 µM.

Question: And the kcat (ANP; 37°C, pH 7.4)?
Answer: The kcat was 0.56 ± 0.05 s⁻¹.

Question: And the “Fold change in kcat/KM” value (ANP; [1])?
Answer: Its value is 53.

Question: And the Km (Arg-vasopressin; 37°C, pH 7.4)?
Answer: The Km was 22 ± 3 µM.

Question: What about the kcat (Arg-vasopressin; 37°C, pH 7.4) of the same molecule?
Answer: Its kcat is 0.017 ± 0.001 s⁻¹.

Question: And the “Fold change in kcat/KM” value (Arg-vasopressin; [1])?
Answer: The value was 510.

Question: And the “increase in kcat relative to wild-type NEP” value (Aβ1–40; substrate Aβ1–40)?
Answer: The value was roughly 2 fold.

Question: What about the Km (Aβ1–40; [2]) of the same molecule?
Answer: The Km was 14 ± 1 µM.

Question: And the kcat (Aβ1–40; [2])?
Answer: The kcat was 2.1 ± 0.1 s⁻¹.

Question: What about the “Fold change in kcat/KM” value (Aβ1–40; substrate Aβ 1–40, ratio of wild-type NEP kcat/KM to that of the mutant) of the same molecule?
Answer: The value was 0.055.

Question: What about the “increase in kcat/KM (catalytic efficiency) on Aβ1–40 over wild-type NEP” value (Aβ1–40; substrate Aβ1–40) of the same molecule?
Answer: Its value is 18.5 fold and 20 fold.

Question: And the “increase in kcat/KM (catalytic efficiency) on Aβ1–40 over wild-type NEP” value (Aβ1–40; substrate Aβ1–40, listed as Neprilysin variant G399V/G714K)?
Answer: Its value is “approximately 20 fold”.

Question: And the “specificity switch in favor of cleavage of Aβ” value (Bradykinin; Aβ1–40 versus bradykinin)?
Answer: Its value is 6.4×10^4.

Question: What about the Km (Bradykinin; [3]) of the same molecule?
Answer: Its Km is 37 ± 10 µM.

Question: What about the kcat (Bradykinin; [3]) of the same molecule?
Answer: The kcat was 0.0055 ± 0.001 s⁻¹.

Question: What about the Km (GLP-1; 37°C, pH 7.4) of the same molecule?
Answer: Its Km is 23 ± 4 µM.

Question: And the kcat (GLP-1; 37°C, pH 7.4)?
Answer: Its kcat is 0.89 ± 0.07 s⁻¹.

Question: And the “Fold change in kcat/KM” value (GLP-1; [1])?
Answer: Its value is 3.6.

Question: What about the “reduction in kcat relative to wild-type NEP” value (GRP) of the same molecule?
Answer: The value was 67 fold.

Question: And the Km (GRP; 37°C, pH 7.4)?
Answer: The Km was 120 ± 20 µM.

Question: And the kcat (GRP; 37°C, pH 7.4)?
Answer: The kcat was 0.39 ± 0.05 s⁻¹.

Question: And the “Fold change in kcat/KM” value (GRP; [1])?
Answer: Its value is 52.

Question: And the Km (Glucagon; 37°C, pH 7.4)?
Answer: Its Km is 30 ± 6 µM.

Question: What about the kcat (Glucagon; 37°C, pH 7.4) of the same molecule?
Answer: Its kcat is 1.2 ± 0.1 s⁻¹.

Question: What about the “Fold change in kcat/KM” value (Glucagon; [1]) of the same molecule?
Answer: The value was 4.2.

Question: What about the Km (Neurokinin A; 37°C, pH 7.4) of the same molecule?
Answer: The Km was 34 ± 7 µM.

Question: What about the kcat (Neurokinin A; 37°C, pH 7.4) of the same molecule?
Answer: The kcat was 1.1 ± 0.1 s⁻¹.

Question: What about the “Fold change in kcat/KM” value (Neurokinin A; [1]) of the same molecule?
Answer: Its value is 52.

Question: What about the Km (Neurokinin B; 37°C, pH 7.4) of the same molecule?
Answer: The Km was 22 ± 3 µM.

Question: What about the kcat (Neurokinin B; 37°C, pH 7.4) of the same molecule?
Answer: The kcat was 0.42 ± 0.03 s⁻¹.

Question: And the “Fold change in kcat/KM” value (Neurokinin B; [1])?
Answer: The value was 48.

Question: And the Km (Neurotensin; [4])?
Answer: Its Km is 16 ± 3 µM.

Question: And the kcat (Neurotensin; [4])?
Answer: Its kcat is 0.039 ± 0.002 s⁻¹.

Question: And the “Fold change in kcat/KM” value (Neurotensin; substrate Neurotensin, ratio of wild-type NEP kcat/KM to that of the mutant)?
Answer: The value was 320.

Question: And the “reduction in kcat relative to wild-type NEP” value (Neurotensin; substrate neurotensin)?
Answer: Its value is 340 fold.

Question: And the Km (Nociceptin; 37°C, pH 7.4)?
Answer: Its Km is 63 ± 7 µM.

Question: What about the kcat (Nociceptin; 37°C, pH 7.4) of the same molecule?
Answer: Its kcat is 14 ± 0.9 s⁻¹.

Question: What about the “Fold change in kcat/KM” value (Nociceptin; [1]) of the same molecule?
Answer: Its value is 2.6.

Question: What about the Km (Somatostatin 14; 37°C, pH 7.4) of the same molecule?
Answer: Its Km is 32 ± 3 µM.

Question: And the kcat (Somatostatin 14; 37°C, pH 7.4)?
Answer: Its kcat is 9.1 ± 0.4 s⁻¹.

Question: And the “Fold change in kcat/KM” value (Somatostatin 14; [1])?
Answer: Its value is 15.

Question: What about the Km (Substance P; 37°C, pH 7.4) of the same molecule?
Answer: Its Km is 92 ± 10 µM.

Question: And the kcat (Substance P; 37°C, pH 7.4)?
Answer: The kcat was 12 ± 0.9 s⁻¹.

Question: And the “Fold change in kcat/KM” value (Substance P; [1])?
Answer: Its value is 8.7.

Question: What about the Km (α-endorphin; 37°C, pH 7.4) of the same molecule?
Answer: Its Km is 6.5 ± 1 µM.

Question: What about the kcat (α-endorphin; 37°C, pH 7.4) of the same molecule?
Answer: Its kcat is 0.089 ± 0.003 s⁻¹.

Question: What about the “Fold change in kcat/KM” value (α-endorphin; [1]) of the same molecule?
Answer: Its value is 26.

Question: And the Km (γ-endorphin; 37°C, pH 7.4)?
Answer: Its Km is 4.4 ± 0.6 µM.

Question: And the kcat (γ-endorphin; 37°C, pH 7.4)?
Answer: Its kcat is 0.16 ± 0.006 s⁻¹.

Question: What about the “Fold change in kcat/KM” value (γ-endorphin; [1]) of the same molecule?
Answer: The value was 10.

Question: And the Km (Endothelin-1; [5])?
Answer: The Km was 57 ± 20 µM.

Question: What about the kcat (Endothelin-1; [5]) of the same molecule?
Answer: The kcat was 0.059 ± 0.008 s⁻¹.

Question: What about the “Fold change in kcat/KM” value (Endothelin-1; substrate Endothelin-1, ratio of wild-type NEP kcat/KM to that of the mutant) of the same molecule?
Answer: Its value is 13.

Question: And the EC50 (Aβ1–42)?
Answer: The EC50 was 19.5 nM.
